# Assay: soluble on expression in E. coli; label from the status in PepcDB or PDB records
row,Sequence,soluble on expression in E. coli
1,MKYTIEEIRQMQEGQTFDCKSILIEPKHLATIIVAMANADGGMIAVGISDKTRRIEGVNQDKEHLNDILRTPLDFCVPSVSVTTDYVPCTDAEGRDNRVLLMHIPASPRLHANQADEVFWRVGDKSRKLTFDERLQLMYDKGERYYEDSTAYDATLDDIDMDAVKAYMKRIGYGKSAMEYLQENKGFVTYKGDVPQVSAACILLFGKHPQTFFPRARVRFIKYFGTEEKVGREMNVIKDVTFDGRILEQIQKTVEYLETQVKEHSYLGEDGIFKTDREYPKFVIQEMVVNSVCHRDYSIKGTEIQIKMFDDRLVFETPGKLPGIVRTDNIRHTHFSRNPKIAEFLKAYDYVKEFGEGVDRMCRELSALGVKEPQYNLVAFIMKATVCAKVLEERQGTNHFDQKRPESDQKSDQMRIILELIKSNPNISRTELSEKTGLHDSSVKRRLKTLVDEGLIQRVGPDKGGQWKVIGSLLEHHHHHH,soluble
2,MAHHHHHHVSASPPQRDRGSPPTRPLSEPQDVDAPAAGTVQALRQAVEAQEACVRLLRARQAAREALLRHTRRLLTADDSIEWPGSVEQLVRQVEASLHKLQQAHSEAAAPAATTADNVAPTSAPSRSPRNAAGDADPSADPLARIFHSGVEAQLAAVAEPPHTLPASTLASRSSTAKRRKEAGESGLTNAVSTTSPPPGGPFPPRSAAMTALLARSASRQEAGHAAMLAALSALELSLMSNSGATEVGRDVHNAEPAWLRQVDSDSANDDDAAPEEQQQEKEGNRGDIASSDYSDDFECGSSTSSGADD,soluble
3,EDSKALDEVVVVAFGTQKKESMISSIETIKPAELKVPSSNLTTALAGRMSGVIAYQRSGEPGKDNADFFIRGVTTFGYKKDPLILIDGIETTTTELARLQPDDIAAFSILKDATATALYGARGANGVIQVATKEGKEGA,not soluble
4,MRIRLFAFCLLLGGCQSQLPPLPDWQSPEGRDDPQTGRIVELRSGVTLSPQQLVARLAAAPRVIVGEKHDNPDHHAVELWLAQALGEYRAQGSLLLEMLDPGQQPRVDAVRAQLGNGKPVANLEEALDWQKGWDWTQYGPLVSWAVAQPAPLLAANLQRSEIMRIYRERPPLPGTASRRDSVRLPLLAQIRESHCGMLPDDQLPAMLAVQQQRDRRMAERLRDAPRPAMLVAGSFHARRDLGVPVHLRDLGAEKGTQVLMLVEAGQAVTTREADYAWYTPAQPDKDYCAEMKKARLEHHHHHH,not soluble
5,MGSDKIHHHHHHMNLQGLLLFDIDGVIRDVAASYRRAIQETVHHYSGWRPSVAEIDALKTEGIWNNDWDASLELLRRDQKSRNQALELPSREQLIEVFSRFYFGGDPNGDPSNWQGFIRNEPLLVNHRFFEELSSLGFAWGFVSGAEPPSARFVLEQRLGLKHPTLIAMGEAPDKPDPTGLLQLASQLAGRRLGQGVPTVAYLGDTVADVRTVINARQQQPEQQWMSLAVAPPHLHGIEQQEARNAYEDRLKQAGADHILSCTTDAIETLKNW,not soluble
6,AGMDVRESISLQNQVSMNLAKHVITTVSQNSNVIFSPASINVVLSIIAAGSAGATKDQILSFLKFSSTDQLNSFSSEIVSAVLADGSANGGPKLSVANGAWIDKSLSFKPSFKQLLEDSYKAASNQADFQSKAVEVIAEVNSWAEKETNGLITEVLPEGSADSMTKLIFANALYFKGTWNEKFDESLTQEGEFHLLDGNKVTAPFMTSKKKQYVSAYDGFKVLGLPYLQGQDKRQFSMYFYLPDANNGLSDLLDKIVSTPGFLDNHIPRRQVKVREFKIPKFKFSFGFDASNVLKGLGLTSPFSGEEGLTEMVESPEMGKNLCVSNIFHKACIEVNEEGTEAAAASAGVIKLRGLLMEEDEIDFVADHPFLLVVTENITGVVLFIGQVVDPLH,soluble
7,MASSSATLSLCSTFSAHCNVNSRRSSTILCSLSKPSLNLAKPLTGFLSPSTASTSRTAFTVAPKFAESVVEAEPETTDIEAVVVSDVSEVTEEKAKREEIFAVIMVGGRQYIVFPGRYLYTQRLKDANVDDQIVLNKVLLVGTKTHTYIGKPVVTNATVHAVVESQGLNDKVVVFKYKPKKKYRRNIGHRQPNTRIRITGITGYEEYPASPNVAVGEVNLLEHHHHHH,not soluble
8,MWEANELSSTNTFSHQAEMDWPSANWWQRYQDAQLNHLIEEALQHSPSLCMAMARLKGAQGFARQAGAIRSFDLGLAASATESKVSERYQSATPPDGWNDYGTLTLNFQYDFDFWGKNRAAVVAATSELAAAEAESVAARLMISTSIANAYAELARLYANQETVHAALQVRNKTVELLEKRYANGLETLGSVSQAKAVAASVEAELLGIQESIQLQKNALAALVGQGPDRAASIEEPHITLTSRYGLPSEAGVGLLGHRADITAARWRAEAAAQQVGIAQAQFYPDVTLSAFIGYQAFGLDHLFDSGNDAGAIGPAIYLPLFTGGRLEGQLTSAEARYQEAVAQYNGTLVQALHEIADVVTSSQALQARINKTEQAVQQAEQALHIATNRYQGGLATYLDVLVAEESLLNNQRALVNLQSRAFSLDLALIHALGGGFETTES,soluble
9,GPGSMRYFVVAHEFQAEEDVELSVFKGEILCATEGVAQDGWIKVEATTDARRRGFVPMSYLREISAAEASTSMSAPASSAPPLTGESTSPMRTPQRAGGESSARAALANTTVSTSLDLGNCSGVVAKGFSPSLQPMRSPETTAVHAAPASSSIHLTPAQQAAGPVSRHLLENPNAVVDAFMKNEVYFNQLMQRRASALAQMQSGLEEAMTEVAACKDRSAVLTRKLHDLDGVVERERQRWMDRVEEEKVHVSRSIPYSAPLAVPVSSGTTPLRSPIIGPHSGVGRSVLDDDSPRQLRA,soluble
10,MGSDKIHHHHHHMKPIDIKENKNPVESAQFGKTQDEPLSDKTHVQISDEATQWLLTIEEDDSENNQQALNAWLSLSAQHKKVYQQLQTLWEVADELPVDLFSEDLLGLSMTPSSAVNTSSRVNPYALKKESILAKFISFFTLRKTMYTASFASVIFATFITFTQYNREMVTTDKPLQVASSSTLRTNEYQTKLGEHKTITAQDGSIIVLAAKSQVFIDYSANRRDIHLLYGEALFTVEKDKERPFIVHNHGRSVQALGTIFNVRESKSAMQVSVLEGIVEVNVEPEVKSKVTNSSDKNQVATLVAGQALELDSLGQFSTTYAIEVNERMAWQDGRLNYVNTDLANVIFDLKRYSTLSIHIPNKQVANMGYTGSVIYDKVDDWLIALPYIFPVEVQRHGNSVVIVKRKE,not soluble
11,MCGIVGYIGNNEKKQIILNGLKELEYRGYDSAGMAVMQEGELSFFKAVGKLENLANKCTDFESQGYGFAIGHTRWATHGKPTEINAHPHLGQYSCVIHNGIIENYKEIKDKLEKEGVSFLSQTDTEVIVQLFEFYARNLGVFEAWQKTIKELRGAFATLLVTKKDPNHVYFAKNAAPLIIGKNANKEWYFSSGDAPLIGSCDEVMYLEDLSLGYASKDELVVYENDILKSLCFSKLSGDKAYAKKDGFRFFMEKEIYEQSRVMSEVLMGRIQGDEVVFDELNNEDLSQVDEITLCACGTSYHAAMASAYLFERIAKVKAKVEIASEFRYREAIIKKDSLFIVISQSGETADTLEALKIAKEQGAKTFAICNVDNSNIVRLAHLSLLTRAGIEKGVASTKAFATQVLTLWMLAIFMAQKRNLNVSAEIKALLHTPNCVSVKQALHEKIHRLSKRYLDGHGFFFIGRDVFYPLALEGALKLKELSYLHAEGYPAGEMKHGPIALADSKLYTIALMPKHMLYEKTKSNVEELIARDSTVLSISPLEFDLSDDFIKTNEQDHYMCEFFEMMVITQLLAMEISIRLGNDVDMPRNLAKSVTVE,not soluble
12,MSEEKIYDVIIIGAGPAGMTAAVYTSRANLSTLMLERGIPGGQMANTEDVENYPGYESILGPDLSNKMFEHAKKFGAEYAYGDVKEVIDGKEYKTIIAGKKEYKARAIIVASGAEYKKIGVPGETELGGRGVSYCAVCDGAFFKGKELVVIGGGDSAVEEGVFLTRFASKVTIVHRRDTLRAQKILQDRAFQNEKVDFIWNHTIKEINEANGKVGSVTLVDVNSGEEKEVKTDGVFVYIGMLPLSKPFVELGITNENGYLETNERMETKVPGIFAAGDVREKMLRQIVTATGDGSIAAQSAQHYVEELLEELKTVSEK,not soluble
13,MGSSHHHHHHSSGLEVLFQGPHMDFDVKRKYFRQELERLDEGLRKEDMAVHVRRDHVFEDSYRELHRKSPEEMKNRLYIVFEGEEGQDAGGLLREWYMIISREMFNPMYALFRTSPGDRVTYTINPSSHANPNHLSYFKFVGRIVAKAVYDNRLLECYFTRSFYKHILGKSVRYTDMESEDYHFYQGLVYLLENDVSTLGYDLTFSTEVQEFGVAEVRDLKPNGANILVTEENKKEYVHLVCQMRMTGAIRKQLAAFLEGFYEIIPKRLISIFTEQELELLISGLPTIDIDDLKSNTEYHKYQSNSIQIQWFWRALRSFDQADRAKFLQFVTGTSKVPLQGFAALEGMNGIQKFQIHRDDRSTDRLPSAHTCFNQLDLPAYESFEKLRHMLLLAIQEASEGFGLA,soluble
14,MRGSHHHHHHGMASHMATEQTAITRATFDEVILPVYAPADFIPVKGKGSRVWDQQGKEYIDFAGGIAVTALGHCHPALVEALKSQGETLWHTSNVFTNEPALRLGRKLIDATFAERVLFMNSGTEANETAFKLARHYACVRHSPFKTKIIAFHNAFHGRSLFTVSVGGQPKYSDGFGPKPADIIHVPFNDLHAVKAVMDDHTCAVVVEPIQGEGGVQAATPEFLKGLRDLCDEHQALLVFDEVQCGMGRTGDLFAYMHYGVTPDILTSAKALGGGFPVSAMLTTQEIASAFHVGSHGSTYGGNPLACAVAGAAFDIINTPEVLQGIHTKRQQFVQHLQAIDEQFDIFSDIRGMGLLIGAELKPKYKGRARDFLYAGAEAGVMVLNAGADVMRFAPSLVVEEADIHEGMQRFAQAVGKVVA,soluble
15,MGEHKNCKCNRWVISLQAAFDRDDFEKLFRKAVQSITEEEFQRIPEFRHREDALACLFGRLLLRHSAQKFSGEPWNTIRFERTERGKPFLAVPADTTFGLNVSHQGDYVAFASSCSSKVGVDVMRLDNERNNKTADEYINSMAKSASPEELRMMRSQPTEAMKMTMFYRYWCLKEAILKATGVGIMKDLNSLDFRVNLQDRYRPGAFVTSTTVLEDGRLQDQWIFEETFVDAKHSAAVCKEKKLPRECVFRQDPEAKIFFSKITFESLLENAEITNPMPNNAADIFEEFMAKPKKTF,not soluble
16,MSERVCAVIVTYNRKALLRECLKAVLSQTRPPDHVLVVDNASTDGTPEMLQEEFPQVEVLRLPENQGGAGGFHEGMKRAYEQGVDWLWLMDDDTIPKAKALEALLEAARLPLDPRPRVLASRQLLPNGLPHPTTAFVNPTDPRHPFLWLRLRPRYRPIRWALFTSVLLHRSLVEEHGLPHKAFFIWEDDLEYTARALRRGLGLQVRDSEVIHKSASKPYISATTGENRLFYGVRNRIWVLRSPAFGPLGKAFLALQLLFGLLTYLAFHPSQKSLQEIGRALRAGLTTSPCLEHHHHHH,not soluble
17,MGSDKIHHHHHHMSLNLRDLEYFYQLSKLRSFTNVAKHFRVSQPTISYAIKRLETYYDCDLFYKDSSHQVVDLTPEGELLAMRTNEILSELNHTKKAIHRSSMKDFKVGFPPIISSYLLSKQDNLNFFNALHMIYGGSNELLSLLLNEEIDSSLLGSLEKIKHPQLEIEELFQKEFFIIMSDSHPLANEKELGFKDLLNEDFILLGEHNIHFNAFNRLNEKYNQSANVVLKLDDAHTIKELVRKNLGISLMADIRLSEDFKNLVKVPFIEEDKQFFHINYAYQKNSILSESEKNFLEILKTLK,not soluble
18,MRYIRLCIISLLATLPLAVHASPQPLEQIKLSESQLSGRVGMIEMDLASGRTLTAWRADERFPMMSTFKVVLCGAVLARVDAGDEQLERKIHYRQQDLVDYSPVSEKHLADGMTVGELCAAAITMSDNSAANLLLATVGGPAGLTAFLRQIGDNVTRLDRWETELNEALPGDARDTTTPASMAATLRKLLTSQRLSARSQRQLLQWMVDDRVAGPLIRSVLPAGWFIADKTGAGERGARGIVALLGPNNKAERIVVIYLRDTPASMAERNQQIAGIGAALIEHWQR,soluble
19,MAQTTLIKNVNGYTFTDNSLTQFSAISFTDDIINKVYPIGAVLPASKGVIVIDGQGQTMLPGLIDAHGHVIGYGHSLEHHHHHH,not soluble
